Laboratory results as given in article PMC10896730.

Target: oxidative phosphorylation (OXPHOS) complex III (CIII), all subunits (mouse (endogenous in skeletal muscle)) (UniProt Q9CZ13)
Assay: affinity purification with mass spectrometry; IP of UQCRC2 from mouse hindlimb Skm extracts, LC–MS; stoichiometry from the slopes of protein abundance against effective number of tryptic peptides; approximate

Chain of UniProt Q9CZ13 (Q9CZ13 whole entry, looked up, tested part not stated, one chain of several): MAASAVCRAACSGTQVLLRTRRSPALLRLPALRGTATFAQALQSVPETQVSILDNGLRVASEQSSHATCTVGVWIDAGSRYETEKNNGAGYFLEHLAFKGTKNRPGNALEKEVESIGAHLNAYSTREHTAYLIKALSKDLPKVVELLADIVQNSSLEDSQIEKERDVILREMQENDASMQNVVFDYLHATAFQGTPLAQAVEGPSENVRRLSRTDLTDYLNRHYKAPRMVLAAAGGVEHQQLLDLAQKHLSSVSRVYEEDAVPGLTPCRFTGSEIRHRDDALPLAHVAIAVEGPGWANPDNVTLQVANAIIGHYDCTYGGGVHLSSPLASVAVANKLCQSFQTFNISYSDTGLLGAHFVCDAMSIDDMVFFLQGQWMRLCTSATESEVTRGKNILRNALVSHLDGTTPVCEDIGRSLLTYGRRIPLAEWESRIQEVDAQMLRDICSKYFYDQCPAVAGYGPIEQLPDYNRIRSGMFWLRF

stoichiometry N (ETF complex per CIII complex): 0.5
B1: electron-transfer flavoprotein dehydrogenase (ETFDH) (natural protein)
chain: SSTSAVPQITTHYTVHPREKDKRWEGVNMERFAEEADVVIVGAGPAGLSAAIRLKQLAAEQGKDIRVCLVEKAAQIGAHTLSGACLDPAAFKELFPDWKEKGAPLNTPVTEDRFAILTEKHRIPVPILPGLPMNNHGNYIVRLGHLVSWMGEQAEALGVEVYPGYAAAEVLYHEDGSVKGIATNDVGIQKDGAPKTTFERGLELHAKVTVFAEGCHGHLAKQLYKKFDLRASCDAQTYGIGLKELWIIDEKKWKPGRVDHTVGWPLDRHTYGGSFLYHLNEGEPLVAVGFVVGLDYQNPYLSPFREFQRWKHHPSIQPTLEGGKRIAYGARALNEGGLQSIPKLTFPGGLLIGCSPGFMNVPKIKGTHTAMKSGSLAAESIFKQLTSENLQSKTTGLHVTEYEDNLKQSWVWKELHAVRNIRPSCHGILGVYGGMIYTGIFYWILRGMEPWTLKHKGSDSDQLKPAKDCTPIEYPKPDGQISFDLLSSVALSGTNHEHDQPAHLTLKDDSIPVNRNLSIYDGPEQRFCPAGVYEFVPLEQGDGFRLQINAQNCVHCKTCDIKDPSQNINWVVPEGGGGPAYNGM
